The domain aggregation screens of Martell et al. (2025)

Assay: soluble fraction after stress (log2 fold change); higher = more stays soluble; pooled small domains, quantitative proteomics
Details: stress: 50 degC
In short: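 Pooled custom libraries of small protein domains were measured in a high-throughput format, with quantitative proteomics as the read-out. Each library was stressed at 50°C. Aggregation propensity is given as the base-two logarithm of the fold change in how much of each protein stays soluble after the stress. Higher values mean a larger share of the protein remains in solution.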

Row | Sequence | soluble fraction (log2)
1 | HMEPTLVVARDKDAKSPLVAKLMKELGVDAAPRVIVDDSVIGGAKLSHNHTEIDATYKTALINLYQAIT | 0.126
2 | HMEPVFSDPARQTLYQEVMELPAKYRVPLYLYYYEGYKVDEVGELLGLNASTVQTRLARARAKLKIQL | -0.627
3 | HMEQETVTVPDLVGKDVVAAQAELHEMGLSGKPDGTGTTVVSQFPVAGARVLKHTNVILYTED | -0.0147
4 | HMEQFRENIVRIYMEIDDYENGAKFLEMGNNRDASFYELAGDFYKYFGENELANENYDLAISA | -0.387
5 | HMEQIPEEYKKIYSLITDIPININDIAKKSLLELREVSSKLTMLELDGKVVKLPGNMYIRGDL | 0.0726
6 | HMEQKELAPLVPQEDGSVKLTNLAGYSMREVAAALEGGNLSLIPIGSGTSWKQDPAPGTVLQPGNTVTVYF | 0.00354
7 | HMEQPLSLKLANNAFSRFWGNANPAEKDTQPNNSDIAKWVIEQSGGKITQTMADKIAQIIRPEWAA | 0.184
8 | HMEQSGDELKTWVDQAIAAYPEKVKEYQQGKKGLLALFIGEVMKRSKGTADPKKVNQLVTEALS | 0.045
9 | HMEQTMNDMLKLVDLLPQNQQDIVRMRFYENMSFKEIAESNQISINTALGRMRYAILNLRKYAAERNL | -2.35
10 | HMEQVLDEEIIKSAVQKVIKDNPSAVSDYKAGKKTAFQFLIGKAMAELQGKGHPGKISELLEKE | 0.439
11 | HMEQVQQIPIEELFPFKEHPFKVLDDEAMQRTVESVAQYGVLAPLIARPRPEGGYEIISGHRRQHAAELYR | -0.0852
12 | HMEQWVSIEVEPGIRLDVALTEATQKSRSFIQNLIAEQRVLVNGQPKKANYKVRPGDHVELNYPEPT | 0.0849
13 | HMEREKTYLMPDLIGRKAERVVPRLQASGFKVEDIRHVYYPGLEKGVIVRQSPPGGYPIQKRNLINLEVS | -0.333
14 | HMERLKKYLDDVRTFLPGTNPKKVDEILREIESHVLERAEREHGEVNDNAVAMSIKEYGSPEEVAARYYEG | 0.194
15 | HMERLSNQVYAILKEMIADYRFNPGARINVEQIAKEVGASRTPVWEAVHRLVQEGLLENIPNRGVFML | -1.41
16 | HMERNAEDFAAKYQEIYQDMFRFALYTLKNRQEAEDVVSETVLDAWKGIEGLKNESAFSAWMFRILVNK | 0.152
17 | HMESADEESNALMYDGLLAMRGKRYEVALEFFDALVKHDPDFAEGWNKRATVLYLLGRYERSIADIKQVLA | -0.0654
18 | HMESAEQTGEELAARVNVLQTVSQALARELGREAAVEELADKMKMTVDEVKDIMKMAMDAMSM | 0.168
19 | HMESAESRVDLIGMIGEAITDLRPAGTAQFGEERIDVVSESEWITEGSTVKVVSAEGYRHVVRVME | -0.162
20 | HMESENANVNRAMLTGIASMHAGQLETALNKFNEVIQLAPDFAEGWNKRATIFYLMKKFDRSVNDIAQTLK | -0.0738
21 | HMESFGVAIKRLREAQGWTRADFLRQLGKTGYYMHATTLKRIEEGEQIAKVHEAVIISRLFGVTVEEMG | -2.94
22 | HMESGFEAVREVARHGSFANAAKALGVSGPAVSRQVKSLEERLGLVFFHRTTRMVTLTEAGQQLVDTLD | -0.00498
23 | HMESGNLIFTNAPIADVVNAIETRYGKKLQASNQTSDLQFTGIFKNTDEFSTVVKTIEIALGLQFEV | -1.19
24 | HMESIEAGTFELDNKTSIDISEDEANLLNKMFEELTETNSKDMYGVMVADEAGFNEILEFAKENL | 0.167
25 | HMESNWLTYAKRIQSIADTGMTFAVDDFDKERYQELADISSKMLADLSNIPIGRIENLLGPLGQ | -0.75

Row | Sequence | soluble fraction (log2)
26 | HMESPVNTLPEDQRAWYKALPPELSTKTAVEAGAGVGVSERTVKRLLSNQTFFINLQRGNYRKRH | 0.172
27 | HMESRMTYLQKTKLATENLDAKLIDHQQWVAEVLGEDYRGVYSDEYLRRAAKVFAIFVNNLDD | -2.18
28 | HMESRRVTLLLPYDKAGIADTLRREAAVLSLEYGEDGVTVEAVVKPELWGLVREYVQNDNPK | 0.166
29 | HMESVTETFLTNLINRYIADKAGYIISYPSEYRIEVLYHGGQVLDYENLRKSINTYIPAHIGYKLVTI | -0.112
30 | HMESYDSEIKEVLDLAGKGRWEEAQTKADALREMAPNNSLVERLHGWVLQAAHQRREQALENDIRE | 0.286
31 | HMESYTEEMLEKMSVSKLRTIARELQVDNMTREQIRFGKKTELIQNILEFTGREIENMQLYDK | -0.134
32 | HMESYWVVLRPMAAGTQIGANDLGYRSVALGAAAKNYLAASTNPIGSITRRRLVAGELLQGSSLTDDARA | -0.873
33 | HMETADREILLREIREIINERVDYNKDITDDEMKELVMNTVFERSRQQYMSIQDKQEIIQAIFNSMR | 0.126
34 | HMETAESLLRRLIMLEDPAMQNAMYVLAVMLERGKQLVERAAKPHESGGILRVYEHKKSGDTFVVLDPR | -0.511
35 | HMETDGGDLTPRERDVLSLIGRGLRNAEAASALGLSEHTIAGHIKSVYSKLGISTRAEAALLASRLGL | -0.0786
36 | HMETGGLAQEAERELALLQEQIAHHEALYRKGTPEISDGAFDELFDRYQELADSLGVPADERIDRA | -0.0378
37 | HMETIHEMVNRLSSEGFIKNEDGIWYLRDRRGDGTKWLKNPFFESTGEKDAFALIDHLKVNDELLSKLRK | -0.3
38 | HMETINERVNSIIEREGHTVATFAKKIGVPWTTIKNIVSGRNAPSYDIMVKIINAVDWVDANYLVMG | -1.98
39 | HMETKIKFQIQTLDELNIRKVADWDAKAITTVKKGQILDVVDTVAAKNGSTPMYRLESGLYITASPKYVKK | -0.376
40 | HMETKPTELMLDVHKLRIGMFVYLDLGWMDHPFPLNRFKISTNAQIEQIKGLRLKQVKVMTALSDPASLL | -3.19
41 | HMETKVIVPKVTGMNSKSAINYLSARGLKYKAVPADSGKSFHVVDQYPKSGTKVSPHSTVYLYS | 0.077
42 | HMETLKEVPNLKGQQQEVAKQLLINAGLGVGKINIIEDSTIADGEVVTQSILPNTKVKKDTYVGFTVNKAP | 0.0969
43 | HMETLKLRDSGKEVQSLQELLQRQGLSAPMNGIFDEATKSSVIAFQKANGLDADGIVGYKSWETLFTAG | 0.132
44 | HMETMSGTVKWFNTQKGYGFITGDDGAEYFAHQTQIKMDGFRTLDAGDIVEFDVRSEEKGLAAVNIVP | -0.0597
45 | HMETPDLTQLNPILDEYRGQKGAVIPVLQKAQKIYGFLPPEVLRRIAAGMRVPLSKIYGVATFYSQFY | 0.0579
46 | HMETQAGELQDAIRDAIAALPPRTREVFLMSRERNLRYGEIAEALGISVKAVEANMSRALRQLREKLSPFL | -0.454
47 | HMETVMYLRQIKRPQGIYLAIQESYYDSSKKQSRTRTIESIGYLDNLRKEYEDPIAFFSQKAAAMTSEKKK | -1.51
48 | HMETVQTGTVKVSNSLNVRSGAGTNYSVLGSLSNGAKVEIVGTSGSWYKIKYGSGYGYVSKDYVTVS | -0.0163
49 | HMETVSFNPDIAVIPDYRHVVILGETTKTIANKYDIPVDILKAANPGLGNNVTKGDRLRVPDKTKLQ | 0.155
50 | HMETYHIQMKGDPSKGIVGFSQLDMVIDKIKRLETEKGIAPYELEVLDGDTMEKYSGEEFLTMHE | 0.0939

Row | Sequence | soluble fraction (log2)
51 | HMETYSGVERAAILVMYLERTLAKALLDHMNDEEVRRVGMAMASIDRVEGPDIERIVGDFVRELYEVS | -0.793
52 | HMETYTVPEVLGLTPEQAAQLPEVKDIFTLDVKEEGDFSDKPVGTIVRQSPTEGEHRKGDNLVIEVWLSV | -0.0593
53 | HMEVADAAQRKILQALQVQPLTVEQLSQELRTDTGDLLVSLSMMEITGLIRREAGNTFLAVFAPK | -0.448
54 | HMEVEIPSREALLGLVQKHLKPVSFDEFVSHFKLGDERQQVGIKRRLRAMERDGQLVYTKANSYGLPDRM | 0.194
55 | HMEVGVSGTVFNTDSLNVRKGPGTNFDTVTSLKRGSVVEVFEQSAVDGTVWGRIANGWVNMQYVSL | -0.093
56 | HMEVKEVDYSAFMTMTEENSISKVEIEENQILFKKKGDDQTTYKTARMDDPALITRLHDQGVDFTGQ | 0.0677
57 | HMEVKRANRKERFLEALPYQFSRQDYLNIADKNKIPHKTAEGYITKFVDAGLIHREAHNNYTNPTKA | 0.146
58 | HMEVLPLHQVKLKYAEADTILIALKSAQSMLSPRGQLLADNRSQQIFVYDDEAHTATLIEAIKHLDQPL | -0.0429
59 | HMEVLTEPKVQSIDTHGEKSTFVIESPNPLQPDEIAKLVGADGISVRVDRTWLKSHRDSTWTYSILTVS | -0.00748
60 | HMEVPFRNAAIFKTRSGDYAIRASYDGVDLGIKPIEKSTARTYFQLTDVKDKESFLNMTARNQYESEIAGI | -0.00166
61 | HMEVPNLIGMTDKDLQRTYFQLPIEAAGDGSVVIKQLPEPGEKVKEGSVIRVLLG | 0.171
62 | HMEVPQKTLEILEPWRGRKGFLIPVLQAVQHEFGYVPKEAIETVSREMKMPTAEIYGVVTFYAQFH | -0.493
63 | HMEVSEGEIREKVESVFSSNPRQAYNYKQISKKLNINDKSERQIVWDVLRKLAGSGKIQEVEHGRFRARAE | 0.122
64 | HMEVSKETFPAYVAVDSLPVYKSASTSSSKVTTIDFGREVTVVETRGGWAKIQYGSYKGFAEIEGMSKN | -0.368
65 | HMEVVELTDDEKMILATLHDGPVEIGHIKQVVGLSGKKWDAATKSLRQKGLINVVLENEQKLMVK | 0.422
66 | HMEWGEADFVRLDEALATLRTLSPRQAEVVDLRFFSELSLEETAATLGLSLATVKRDWSVARLYLQRALS | 0.0743
67 | HMEWTVEKQAAATLNAWMRKNSEMTSEKKVAVAAGIGPATVNRIMKAEVSTTIGVLSSLARAFGHEAYEMI | -0.276
68 | HMEYDEVVVVKQIIPKGKNTMVAHLKHLKEHGETGFLKQAVGYLKLHASEIPFSVDAVISEVH | -0.361
69 | HMEYDYKVIDFFKDYYSYLNYQEIEPNILDKQLTTLTEEESAKIAGIMKLDYEDFTRGIEIVTGS | -0.195
70 | HMEYLIENYGSVINQARMKKGMTQEQLSSKTGVSQAYIRSIESQNMKPTDAVARKIEFELGIKLFE | -0.0273
71 | HMEYSKSIKRLREDKNLTVEELAKRLSLDVEEIQKAEDGEDVDQKTLEAIARYFGVQYDSLVEGTAKSK | 0.0998
72 | HMEYTTEELDSLLKLYFQTHESINRNEFEQLTSYTRTTASRRLKTLVQAGKLQNIGLYRFPVYKPTEGNF | -2.49
73 | HMEYYWHQLKGLEVVNTRGESLGRVRRLLETGANDVLVLEGEQERLIPYVPDTIKQVDLAKGLIEVAWDRD | -0.0728
74 | HMFAADIGVGIVDADSLRVRSEPSTGAPIVTSLLRGTQVTVQEKLDGWYRITYNDVSGFVSAEYLIFTADE | -0.241
75 | HMFAGEWKQDASGWWYQNDDGSFTRNGWQNISGKQYYFNENGYMLHDTTTPDGKQVGSDGSLV | 0.0661
